Measurements taken from patent US20050276757.

Tested on: p120 catenin expressed from a transfected plasmid (exogenous p120, HA-tagged in Example 1)

ZC1 kinase, over-expressed from a plasmid (active full-length ZC1)
in vitro phosphorylation (32P-ATP, autoradiography): p120 immunoprecipitated from cells co-expressing ZC1 also showed phosphorylation of p120 in vitro by associated ZC1
